The supplement of paper PMC10567573

Test: protein stability index of a GFP-peptide fusion (GPS, HEK-293T) (PSI 1-6); higher = more stable
Conditions: c terminus: native
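Also: lentivirally expressed fusion library, cells FACS-sorted into six equal-sized GFP/DsRed ratio bins, PSI computed from sequencing read fractions per bin weighted by bin number.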

Q: With DGWIRVSSDNVADLHEKYSGSTPE [PSMB5 addE] as the protein, how does the protein stability index (parent: NP_002788.1) read?
A: 4

Q: Which protein stability index (parent: NP_006221.1) does the source give for CQPISFSGFGAEDDDLGGLGLGPE [POLD2 addE] here?
A: 2.57

Q: Which protein stability index (parent: NP_009172.2) does the source give for LPALFTDLYSQEITAEEAREALPE [SNF8 addE] here?
A: 5.12

Q: Which protein stability index (parent: NP_015628.1) does the source give for EQRNSRWNTVLRAVKAKTHHLEPE [TRPA1 addE] here?
A: 4.66

Q: For HSLRAVSTDPPHHDHHDEFCLMPE [BEX2 addE], which protein stability index (parent: NP_116010.1) is on record?
A: 4.74
